Assay: soluble on expression in E. coli; label from the status in PepcDB or PDB records

| Sequence | soluble on expression in E. coli |
| --- | --- |
| MAHCLHPEKFFPVVKSVALPPGSLNGKVALVTGGGTGLGKAIATTFAHLGASVAIAARRLDVLEKTADEIRSSTGGVCEPFQMDVKDPAKVAKAFDAVEKKLGHTPDILINNAAGNFIMATERLSPNAYGTIIDIVLKGTLHVTTELGRRCIQQKRGASVLSITTLYAQSGAPFVVPSAVSKAGVENMTKSLASEWAKHGLRFNAIAPGPIPTEGAFGRLFAGELKDSGDAMKASVPVGRLGHPEEIANLAAFMSSDFMSWMNGAIIDFDGGQQHIHHGSHMGQFLHEWDNEKWEETENLIRGRTGKEKKSKL | soluble |
| MVFDPDFLNNNSEEHTNQLLNEHFGEHPNQLLKYLQHQSPEVLARVAQSVTPEIKQIISQNVQGLVGMLPAESFNVQITTDRDNLAGLLASAMMTGYFLRQMEQRMQLDHLSNQ | not soluble |
| MSLKSLSYKRIYKSQEYLATLGTIEYRSLFGSYSLTVDDTVFAMVSDGELYLRACEQSAQYCVKYPPVWLTYKKCGRSVTLNYYRVDESLWRNQLKLVRLSKYSLDAALKEKSTRNTRERLKDLPNMSFHLEAILGEVGIKDVRALRILGAKMCWLRLRQQNSLVTEKILFMLEGAIIGIHEAALPVARRQELAEWADSLTPKQEFPAELEEGHHHHHH | soluble |
| GPGSMMTPEDATGLEAARKQKIHNLKLKTACLENEELVQELHISDWSETQRQKLRGAHEKGEELLASVEVGTKWNLMEAYDLAKLMRVCGLEMSQRELYRPEDKPQFMDIIGVKKVLQDLRQNRNKTRVVSFTQLIDNSIAKMEKVEEELRRSQLDATQLAQVPTRTVKMMEDIMNATQIQNALASTDDQMQTQLAQLEKTNEIQNVAMHDGEMQVAEEQMWTKVQLQERLIELLKDKFGLIGKCEEENAQFKEIYEVQKQANQETSQMKDAKRRLRQRCETDLKHIQDAIQKADLEDAEAAKRYAGNKERSERAIKENEEMQEEAWNKIQDLERQLQNLGTDRFDEVKRRIEEVDREEKRRVENAQFLEIAAQHKKLLELTVYNCDLAMRCTGLVEELVSEGCAGVKARYDKTNQDLAALRLEVHKEHLEYFRMLYLTLGSLIYKKEKRLEEIDRNIRLAHIQLEFCVETFDPNAKKHADMKKELYKLRQGVEEELAMLKEKQAAALDDFKESEEALDAAGIEFSHPVDENNEEVLTRRSKMVEYKSHLTKQEEVRIAAEREEIKRARLLRSGGESAAAQITSGSMNADYAASAQLEL | soluble |
| MGSDKIHHHHHHMSSVHHKIIKHKIGLLNLAAELGNVSRACKVMGFSRDTFYRYQAAVETGGVEALIDANRRKPNIKNRVEEATEAAILAFALEQPAFGQVRVSNELRKRGIFVSPSGVRSVWLRQNLESFKKRLSALEKHIAETGAVLTEAQVQALEKKQEDDVAQGEIETAHPGYLGSQDTFYVGTLKGVGRIYQQTFVDTYSKWAAAKLYTNKTPITSADMLNDRVLPFFAEQSMGIIRILTDRGTEYCGKPENHDYQLYLALNDIEHSKTKANHPQTNGICERFHKTILQEFYQVTFRRKIYQSIEELQHDLDDWMAYYNSVRTHQGKMCCGRTPMQTLIDAKEIWDDKITELNN | not soluble |
| MAHHHHHHMKYGQVVVGPAGSGKTNYCKLMKEFMKIKKRNCYVVNLDSASEEYYYERKKKAINTTSNIEKELKQYYDTIYDIDIRNYVDVNSLMEDQMLGPNCALLRSVELLYENSYLLEDELNNYDDDENYFIIDTPGQIELYTHTDYFKKILSIFTDQNIRLIVVFLVDISFISSNTKLLSAYLTSLSTMINFELPHINILTKCDLLASKNYYQELRKFKHNNNFFFQRKLYKKINKKIKGGRGSRFFLNDKAEQSDGEGKRPSDDLGDTFLKEMECINGDKSFKDEYILCSDYDKRSVSSFSSASMSEGRSEKFGKNSSDEHSSSSVRSEEIEEKIYQKNYEKLNDILSLDPHDIVMTANKCMSRKYYKLNNAFAHIIEDFNLVSFIPLNIYDDDNVDFIINSIDMIIQYGEDKDVNDNYDM | not soluble |
| SNAMKADILLVSHSKMITDGIKEMIEQMNASEEITIHSLGGTSDGSLGSDPMKIIDTINEADSDREFLIFADLGSAVLSSELAFDMLEEDQQKHYHLVDAPLVEGAFASAITAGVSDDLTQILAEAQNAGKKGWN | soluble |
| MVSQLACIIWTGIIAGRTATLTEGDNMKLPKWLEEKYDLLWDKFEDREFRSTEALEILGKEHLIDEKSLSAAISEMRKKGWIETRKDPDDERRRIYMLRPKSEIIQDYLTLKDDKLGRADIERILKGAADLIRTRVDYKFILVLLFMKQMSDKWMMEYQKAYEDAIKEYGLSEEEARLEARNSAYHDLDIKEEYLWDNIRKDVENLPIKFAGALKNLAELNPAFKDVVDAFDFVEFTQSQENREILRQLVELFSEKKLTNVDPDILGDAYEWILRYFAPTKAKEGEVYTPREVIRLLVEILDPKPGESVYDPASASNGMLIISHKYVKETYGEAERLFLYGQEVNRKTMALGSMNMYIHDIKDHHIAHGDTLLYPKFKESDGIMRFDVVIANPPWNQDGYGEDTLKKGDYWRERFRYGFVNKQSADWAWIQHMIASAKDDGRIGVVIDNGCLFRGGREKSIRSAVLEDDLIEAVILLPEKLFYNTGAPGAIIILNKDKDEERRGKVLFINAGEEYEKHPEVRKLNILSDGNIERILEAYREFQGDDGFSRVVDLDEIRENDYNLNVPLYAFPEEELEDIDVAGEWMRLSEIEEELAEVDERIRGYLDELGYMGVKM | soluble |
| MDPRGTKRGAEKTEVAEPRNKLPRPAPSLPTDPALYSGPFPFYRRPSELGCFSLDAQRQYHGDARALRYYSPPPTNGPGPNFDLRDGYPDRYQPRDEEVQERLDHLLCWLLEHRGRLEGGPGWLAEAIVTWRGHLTKLLTTPYERQEGWQLAASRFQGTLYLSEVETPNARAQRLARPPLLRELMYMGYKFEQYMCAGELPLLHSPLPLPRG | not soluble |
| MTNVLWLQGGACSGNTMSFLNGEEPTACDLIANFGIKVLWHPSLGVELGNNLQTLLWDCVLGKTPLDILVFEGSVVNAPNGTGEWNRFADRPMKDWLIDLSQAAKFIVAVGDCATWGGIPAMSPNPSDSKGLQFLKRKEGGFLGKDFVSKAGLPVINIPGCPTHPDWITQILVAIATGRTDDIVLDELHRPQTFFNTYTQTGCTRNIHFAYKATTAEFGQRKGCLFYDLGCRGPMTHSSCNRILWNRISSKTRAGMPCLGCTEPEFPFFDLKPGTVFKTQTVMGVPKEIPPGVNHRDYAVLTVVAKDAAPKWADEDFFTV | not soluble |
| MTKIKIVVIVGPTAVGKTALGISLAKAFNGEIISGDSQQVYRQLDIGTAKATQEEQEAAVHHLIDIREVTESYSAYDFVQDAQKSISDIVSRGKLPIIVGGTGLYLQSLLEGYHLGGQVDQEAVKAYRNELEQLDDHDLYERLQVNNITIEQVNRRRAIRALELAQFADELENAETAYEPLIIGLNDDRQVIYDRINQRVNRMIENGLLEEAKWLYEHYPTVQASRGIGYKELFPYFVGEMTLAEASDQLKQNTRRFAKRQLTWFRNRMAVSFTAITAPDYPQVVHDRVRDFLGQKEKSLEHHHHHH | not soluble |
| MGSDKIHHHHHHMSDSVSIAKYMHRDCLHCPAPLVGTSFKPCHFADIVDNGLQDGFFEVHAENYMGKGGPPHRALSALRETYPVSVHGVCLSIGGPSPLDAHHLARFRDVVARYEPVLVSEHLAWSSHGGAFYNDLLPLPYTKATLDRVCAHVDQIQEAIARPLLLENPSTYVGFASSTMSETEFIAAVAGRTGCGLLLDINNAFVSATNHGCSAADYLADFPLEQVGEIHLAGHSEQRDDEDEPLLIDSHDRPIAGPVWALYASVIARTGPVPTLVEWDSQLPDWLVLRAQALEARRIMDAAVASPVEVADHAL | not soluble |
| MGSDKIHHHHHHMAAEALADEHLVMLAYRDPAIGDHIDVQKVRLPFRWEFDLPTIFSLVRLVWRKKIDILIPTKRKDYVLAGLVCRLTGAANILRLGIDRPLKNTPVQRLIYGWLADGIIVNADKIRRTLALSPWIDPDKVRVIYNGIDREKLEPDSVLPCKKPFSFTIGAAGALIPRKGFDYLIRSFARFSAGSNEITDAGLVIAGTGPERESLEKLAADLGISGRVRFTGHLTNPYPVMRACDLFVSASTSEGLANVLLESMALHCVPVSTLSGGADELIEDGRNGFLVRYGDEKRLAEIFSELYKNPGKIASVAANAHQTIMQRFSIELMRKDLFEFCSEINDRKKGT | not soluble |
| MSLKPLAYRMRPTKIEDIIGQQHLVAEDKIIGRMVQAKHLSSMILYGPPGIGKTSIATAIAGSTSIAFRKLNAVINNKKDMEIVAQEAKMSGQVILILDEVHRLDKGKQDFLLPYLENGMIILIGATTANPYHAINPAIRSRTQIFELEPLTPELIKQALERALHDEHRGLGTYSVSIDDQAMEHFAHGCGGDVRSALNALELAVLSTKESADGEIHITLETAEECLQKKSFSHDKDGDAHYDVLSAFQKSIRGSDANAALHYLARLIEAGDLESIARRLLVIAYEDIGLASPQAGPRVLNAIQTAERVGFPEARIPLANAVIELCLSPKSNSAILAIDEALADIRAGKIGDVPKHLKDAHYKGAQELGRGIDYKYPHNYDNGWVEQQYLPDPLKNKQYYKPKQTGKFESALKQVYDKLMKGIITITTDPNSSSVDKLAAALEHHHHHH | soluble |
| MMSVPQAREARRIDLGEMGWGEVQVDFYNPLVKRREIVMILHHELKPTPMRIMLRQKLAEVLGVDIKRIYIRYIKTGYGAGLSKVRVHVYDSPERALSFEPKYIIERNGGVNPFEEAEG | soluble |
| MGSDKIHHHHHHMKSRLKKSHRLIRLISNIKSEPYLTVEQLVKIHRISRAQFYKDKAALAELGFEFSWDRRRRRFVISRVAYCPVENLTLSERWALLMAARQLSASGDYSLSFEVLNAARKLAAGLSDPIRETAVSLFNDLVLREGYGCRKEVMNKISMAIFEKRRIILTYKKPLDSQPEREELDPYHLFFQDRSLYVEGYACLRRDVRMFRLNRIRDIAFTPIRFSIPDDYDFGKRYRNAFSVFGGTTTQRVVVRFTAHIRPYIEETLWHHSQVVTIENGGFIRFEVQVAEPREVLWWAFRWGAGAEILEPAWLREKAKCEVEKMAGMYGRGSGSG | not soluble |
| MSVFMDLNIINSSDKNRLKHIIETAAHLGYSTVAINYVVEPLQKKQEIPNPQSISDLFDKFPVVQGKSSPIKVLNRLTIVASDASHFRPTNEYKKFDLVAVYPKTEKLFHAACMTFDVDIICIAVTEKQPFHFKRAPVNGAIDRGIFFETCYAAAIRDSITRRYTIANAICLMEICKGKNVIVSSGAERQLELRGPYDIANLGLVFSLSEGDAKAAVSTNCRSVLLHGETRATASGVIHTMKKPQILQKEEEETPAAKKARTELA | soluble |
| MSTKRKIVVSSDSDDDMPFTQEKQKKAATPAKKRTKPVVLTDDDEEEENAPQKKTAPKRSRKQEKEESDITSDEDELVRGTDEKKKRKGGKKELPVGQKTLDYMFKPSSSSSKRDDPKKKVEKTLVNPADFFKNSPAPSASKLPKVAPKTVEKPKTPAKKPVEISPSTKENTKTKKVSDDEFVDSDDSFDTFTPITVKKKTPEKRKETPKKKELPSVKKEFPKKQSIPVKKEKETPQKKALSVKKDPPKVTSESSSSSQVSTSSVVFQPKPSGPPPALSWVDKYKPKRMGELVGQNGDKSPINKLLEWIKDWAKHNLGEGAKIKKPKPAPWMSSQDGTSFKAALLSGSPGVGKTTCAYMACQQLGLQLVEMNASDVRSKKHLEAKIGELSGSHQIEQFFGAKKCAPQDNQKVHHILIMDEVDGMSGNEDRAGISELIQIIKESKIPIICICNDRQHPKIRTLANYCYDLRFPKPRVETIRSRMMTICSQEKMKIGKEELDEIIELSGHDVRQTIYNLQMRSKGVGAKINQKDMAVDAFSAARRLLDSRTTLMEKQEMFFTDYGIMPLFVQDNYLNMKNEKHSPIQAIRGIRKAADFISLGDLIDRQIRGGGSWKLLNEQSMISAALPAIATGGHLKAMIQFPSWLGKNSTAGKRKRLLQQLVQHTHLKVSAGTHSFATDYAPMLRQKITKPLLEHEADGIPDVISTMTEYDLIKDDTEALTEIVAWPGKIDPASKILSKVKASLTRTLNKTGRMLPYSMDSVSKGKKRGVNSIGIEMDEEGNLVEKFEDEDGESDNEDNEEKTTDVVIKVRTGGGAGASKSARGGRGGGRARGGRGSKK | not soluble |
